{
  "source": "patent US12365732",
  "about": "(23ANDME, dated 2025)",
  "binders": {"B1": {"name": "h10G1 IgG (humanized 10G1) (antibody, V domains shown)", "VH": "EIQLVQSGSELKKPGASVKVSCKASGYPFTTYGMSWVRQAPGQGLEWMGWINTDSGVPTYADDFKGRFVFSLDTSVSTAYLQISSLKAEDTAVYFCARNIYYGWGNFDYWGQGTLVTVSS", "VL": "EIVMTQSPDFQSVTPKEKVTITCRASQDIYRNLHWYQQKPDQTPKLLIKHASDSISGIPSRFSGSGSGTDFTLTINSLEAEDAAAYYCLQGYSMPYTFGGGTKVEIKG", "notes": "human IgG1 N297G"}, "B2": {"name": "mAb1.v7.NGS9 IgG (antibody, V domains shown)", "VH": "EVQLVQSGAEVKKPGASVKVSCKASGFTFTNNFMHWVRQAPGQGLEWIGMIHANSGITNINEKFKNRVTMTTDTSTSTAYMELRSLRSEDTAVYYCRSDGVYEGYFDYWGQGTLVTVSS", "VL": "DIQLTQSPSSLSASVGDRVTITCKASQNVGTAIVWYQQKPGKAPKVLIYSASTRYTGVPSRFSGSGSGTDFTLTISSLQPEDFATYYCQQYSSSPLTFGQGTKVEIKG", "notes": "human IgG1 N297G"}, "B3": {"name": "mAb1.v7.NGS11 IgG (antibody, V domains shown)", "VH": "B2 VH with M50F", "VL": "B2 VL", "notes": "human IgG1 N297G"}, "B4": {"name": "mAb1.v7.NGS10 IgG (antibody, V domains shown)", "VH": "B2 VH with M50F, V101I", "VL": "B2 VL", "notes": "human IgG1 N297G"}},
  "note": "Positions count from the first letter of the chain named. Names and notes keep the numbering of the source.",
  "data": [
    {"molecular_target": "T1, hu-CD96 isoform 2 on CHO cells (human, UniProt P40200 22-585)", "T1 construct": "also called CHO-CD96 (isoform 2); CD96-CHOs", "T1 sequence": "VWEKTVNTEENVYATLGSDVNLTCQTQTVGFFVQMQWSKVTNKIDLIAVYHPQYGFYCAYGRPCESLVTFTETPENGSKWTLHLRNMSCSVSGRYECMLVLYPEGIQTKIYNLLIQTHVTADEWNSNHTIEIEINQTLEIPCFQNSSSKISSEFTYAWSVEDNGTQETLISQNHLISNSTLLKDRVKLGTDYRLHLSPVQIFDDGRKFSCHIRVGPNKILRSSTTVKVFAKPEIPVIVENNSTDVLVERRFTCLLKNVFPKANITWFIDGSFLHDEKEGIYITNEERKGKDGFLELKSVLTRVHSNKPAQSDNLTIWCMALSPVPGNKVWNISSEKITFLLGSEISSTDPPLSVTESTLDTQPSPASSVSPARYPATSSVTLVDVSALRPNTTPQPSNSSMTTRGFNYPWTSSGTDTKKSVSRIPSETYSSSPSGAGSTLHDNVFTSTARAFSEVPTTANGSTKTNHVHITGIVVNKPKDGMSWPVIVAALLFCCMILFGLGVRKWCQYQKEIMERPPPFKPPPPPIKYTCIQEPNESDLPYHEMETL", "assay": "FACS, blocks 10 nM CD155-Fc-FLAG binding to CD96-CHO", "experimental": "(§1) CHO cells stably expressing isoform 2 of hu-CD96 (Origene, catalog #RC221005) were incubated with anti-CD96 antibodies for 20 minutes at 4° C. The cells were washed, and then incubated with 10 nM human CD155-Fc-FLAG for 30 minutes at 4° C. Cells were washed, and then human CD155-Fc-FLAG binding was detected by incubation with anti-FLAG-APC (Columbia Biosciences, catalog #D3-1718-1MG) for 20 minutes at 4° C. Cell binding was analyzed by flow cytometry with a CytoFLEX (Beckman Coulter). CD155 binding is represented as median fluorescence intensity (MedFI).\n(§2) As shown in Table 20 (below), the anti-CD96 antibodies, mAb1.v7.NGS8, mAb1.v7.NGS9, mAb1.v7.NGS10, mAb1.v7.NGS11, and h10G1 inhibited soluble hu-CD155 binding to CD96-expressing CHO cells dose-dependently and potently. The antibody NK92.39 (Fuchs et al., 2004; Biolegend catalog #338405) inhibited receptor binding similarly.", "units": {"IC50": "pM"}, "values": [
      {"binder": "B1", "IC50": 60},
      {"binder": "B2", "IC50": 910},
      {"binder": "B3", "IC50": 460},
      {"binder": "B4", "IC50": 570}
    ]},
    {"molecular_target": "T2, cynomolgus monkey CD96 on cynomolgus monkey PBMCs (cynomolgus monkey, UniProt A0A2K5TWV6 22-569)", "T2 construct": "whole, on cells", "T2 sequence": "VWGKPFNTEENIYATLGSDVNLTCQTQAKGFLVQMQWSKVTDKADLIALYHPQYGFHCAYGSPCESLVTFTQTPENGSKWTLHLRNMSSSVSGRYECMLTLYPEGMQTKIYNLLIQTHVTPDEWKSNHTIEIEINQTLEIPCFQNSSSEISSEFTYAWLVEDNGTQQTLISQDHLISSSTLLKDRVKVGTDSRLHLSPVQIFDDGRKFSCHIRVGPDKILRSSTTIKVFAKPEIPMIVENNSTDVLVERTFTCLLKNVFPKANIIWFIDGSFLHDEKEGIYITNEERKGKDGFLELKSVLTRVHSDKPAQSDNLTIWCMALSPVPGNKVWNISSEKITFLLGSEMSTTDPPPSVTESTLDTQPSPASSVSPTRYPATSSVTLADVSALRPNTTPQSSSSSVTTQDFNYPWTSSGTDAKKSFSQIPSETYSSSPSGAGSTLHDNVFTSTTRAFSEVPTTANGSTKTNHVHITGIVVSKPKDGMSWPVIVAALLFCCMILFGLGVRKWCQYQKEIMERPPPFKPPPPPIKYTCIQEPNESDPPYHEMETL", "assay": "FACS, Ab 0.64 nM", "experimental": "(§3) The ability of the anti-CD96 antibodies to bind primary immune cells from human and cynomolgus monkey with lower level of receptor expression was measured. Human PBMCs (StemCell Technologies, catalog #70025) and cynomolgus monkey PBMCs (Primate Biologicals, catalog #CM-MC) were incubated with human TruStain FcX (Biolegend, catalog #422302) for 10 minutes at 4° C., followed by incubation with an anti-CD96 antibody for 20 minutes at 4° C. Cells were washed and the anti-CD96 antibody binding was detected by incubation with anti-mouse IgG-PE (Thermo Fisher, catalog #M30204) or anti-human IgG (Fab) 2-PE (Thermo Fisher, catalog #H10104) for 20 minutes at 4° C. Cells were washed, and immune subtypes were labeled with anti-CD3 (BD, catalog #557705), anti-CD4 (Biolegend, catalog #317424) and anti-CD8 (BD, catalog #557760) for 20 minutes at 4° C. Cell binding was analyzed by flow cytometry with a CytoFLEX (Beckman Coulter). Binding curves were calculated as a percentage of cells positive for bound antibody in the cell type of interest.", "units": {"% positive": "%"}, "values": [
      {"binder": "B1", "% positive": 51.2},
      {"binder": "B2", "% positive": 71},
      {"binder": "B3", "% positive": 74.3},
      {"binder": "B4", "% positive": 73.1}
    ]},
    {"molecular_target": "T3, hu-CD96 Fc (human, biotinylated in Table 16)", "T3 construct": "also called biotinylated hu-CD96-Fc", "assay": "SPR 37C, biotin-CD96-Fc captured, IgG analyte", "experimental": "Briefly, a 1:4 dilution of Biotin CAPture Reagent (GE Healthcare) into HBS-EP buffer (0.01 M HEPES pH 7.4, 0.15 M NaCl, 3 mM EDTA, 0.005% Surfactant P20) was applied to the chip at 2 µL/min flow rate. For the kinetics measurements, 20 nM biotinylated hu-CD96-Fc and cy-CD96-Fc was captured at 10 µL/min to achieve ~50 response units in the second flow cell (FC2). FC1 was kept as a reference. Next, 4-fold serial dilutions of IgG in HBS-P buffer (0.01 M HEPES pH 7.4, 0.15 M NaCl, 0.005% surfactant P20) from low (3.125 nM) to high (200 nM) concentration were injected (flow rate: 10 µL/min) at 37° C. The sensorgram was recorded and subject to reference and buffer subtraction before evaluating by BIACORE® 8K Evaluation Software (version 1.1.1.7442). Association rates ($kon$) and dissociation rates ($koff$) were calculated using a simple one-to-one Langmuir binding model. The equilibrium dissociation constant (K_D) value was calculated as the ratio of $koff/kon$.", "units": {"Kd": "pM", "koff": "s⁻¹", "kon": "M⁻¹ s⁻¹"}, "values": [
      {"binder": "B1", "Kd": 640, "koff": 0.000393, "kon": 612000},
      {"binder": "B2", "Kd": 200, "koff": "5.42e-05", "kon": 266000},
      {"binder": "B3", "Kd": 80, "koff": "1.38e-05", "kon": 173000},
      {"binder": "B4", "Kd": 10, "koff": "1.84e-06", "kon": 144000}
    ]},
    {"molecular_target": "T2, cynomolgus monkey CD96 on cynomolgus …", "assay": "FACS, % positive curve", "experimental": "as §3", "units": {"EC50": "pM"}, "values": [
      {"binder": "B1", "EC50": 120},
      {"binder": "B2", "EC50": 73},
      {"binder": "B3", "EC50": 25},
      {"binder": "B4", "EC50": 24}
    ]},
    {"molecular_target": "T1, hu-CD96 isoform 2 on CHO cells", "assay": "FACS, CD155-Fc-FLAG 10 nM, Ab 100 nM", "experimental": "as §1, §2", "units": {"CD155-Fc binding (MedFI)": "MedFI"}, "values": [
      {"binder": "B1", "CD155-Fc binding (MedFI)": 5120},
      {"binder": "B2", "CD155-Fc binding (MedFI)": 4140},
      {"binder": "B3", "CD155-Fc binding (MedFI)": 4210},
      {"binder": "B4", "CD155-Fc binding (MedFI)": 5110}
    ]}
  ]
}
